The assay concerns the target ΔCTT, a variant of FtsZ that lacks the CTT (B. subtilis).

As to “ΔCTT, a variant of FtsZ that lacks the CTT (domain or fragment)”, the GTPase activity (coupled assay, 5 μM protein, 1 mM GTP), relative to WT FtsZ came out at 3 fold.

The values are drawn from paper doi:10.1101/301622 (bioRxiv, 2018).
